Data as given in paper PMC3553015 (2013).

B1: biotin-labeled AP2µ [modified: biotin (incorporated with Transcend Biotinylated tRNA during translation); biotin (incorporated with Transcend Biotinylated tRNA during translation)] [murine] / GST-21-mer of CD79a centered on the membrane … (parent complex)
chain 1: MIGGLFIYNHKGEVLISRVYRDDIGRNAVDAFRVNVIHARQQVRSPVTNIARTSFFHVKRSNIWLAAVTKQNVNAAMVFEFLYKMCDVMAAYFGKISEENIKNNFVLIYELLDEILDFGYPQNSETGALKTFITQQGIKSQHQTKEEQSQITSQVTGQIGWRREGIKYRRNELFLDVLESVNLLMSPQGQVLSAHVSGRVVMKSYLSGMPECKFGMNDKIVIEKQGKGTADETSKSGKQSIAIDDCTFHQCVRLSKFDSERSISFIPPDGEFELMRYRTTKDIILPFRVIPLVREVGRTKLEVKVVIKSNFKPSLLAQKIEVRIPTPLNTSGVQVICMKGKAKYKASENAIVWKIKRMAGMKESQISAEIELLPTNDKKKWARPPISMNFEVPFAPSGLKVRYLKVFEPKLNYSDHDVIKWVRYIGRSGIYETRC
chain 2: MPDDYEDENLYEGLNLDDCSM
B2: biotin-labeled AP2µ [modified: biotin (incorporated with Transcend Biotinylated tRNA during translation); biotin (incorporated with Transcend Biotinylated tRNA during translation)] [murine] / GST-21-mer of CD79a centered on Y193 [murine] (parent complex)
chain 1: B1 chain 1
chain 2: EGLNLDDCSMYEDISRGLQGT
B3: biotin-labeled AP2µ [modified: biotin (incorporated with Transcend Biotinylated tRNA during translation); biotin (incorporated with Transcend Biotinylated tRNA during translation)] [murine] / GST-CD79a cytoplasmic domain [murine] (parent complex)
chain 1: B1 chain 1
chain 2: RKRWQNEKFGVDMPDDYEDENLYEGLNLDDCSMYEDISRGLQGTYQDVGNLHIGDAQLEKP

Variants of: B1
Experiment: in vitro binding of AP2µ-btn to bead-captured GST-21-mer; parent: 81; read off a plot

Row | Variant | screen value
1 | chain 2 Y11E | ~42 % of full-length CD79a
2 | chain 2 Y11A | ~41 % of full-length CD79a

Variants of: B2
Experiment: in vitro binding of AP2µ-btn to bead-captured GST-21-mer; parent: 65; read off a plot

Row | Variant | screen value
3 | chain 2 Y11E | ~53 % of full-length CD79a
4 | chain 2 Y11A | ~50 % of full-length CD79a

Variants of: B3
Experiment: in vitro binding of AP2µ-btn to bead-captured GST fusion protein; parent: 100; read off a plot

Row | Variant | percent of parent
5 | chain 2 Y34A | ~99 % of CD79a
6 | chain 2 Y34E | ~100 % of CD79a
7 | chain 2 Y45E | ~102 % of CD79a
8 | chain 2 Y45A | ~105 % of CD79a
9 | chain 2 Y23E, chain 2 Y34E | ~58 % of CD79a
10 | chain 2 Y23A, chain 2 Y34A, chain 2 Y45A | ~53 % of CD79a
11 | chain 2 Y23E, chain 2 Y34E, chain 2 Y45E | ~24 % of CD79a
12 | chain 2 Y23A, chain 2 Y34A | ~78 % of CD79a
13 | chain 2 Y34E, chain 2 Y45E | ~83 % of CD79a
14 | chain 2 Y34A, chain 2 Y45A | ~104 % of CD79a
15 | chain 2 Y23E, chain 2 Y45E | ~41 % of CD79a
16 | chain 2 Y23E | ~49 % of CD79a
17 | chain 2 Y23A | ~77 % of CD79a
18 | chain 2 Y23A, chain 2 Y45A | ~50 % of CD79a
